# Data reported in paper PMC9883448.
# Legend:
# Experiment in all cases: FRET or BRET; apparent FRET efficiency by donor (CFP) dequenching after photobleaching of the acceptor (YFP) with 514 nm in a membrane region of whole Xenopus oocytes that co-express the two labelled subunits (cRNAs 1:1)
# [1] = target: human mGluR5 FRET sensor subunit (CFP or YFP in the intracellular loop i2, C-terminal tail replaced by a GABAB tail)
# [2] = target: human mGluR8 FRET sensor subunit (CFP or YFP in the intracellular loop i2, C-terminal tail replaced by a GABAB tail)
# [3] = target: human mGluR4 FRET sensor subunit (CFP or YFP in the intracellular loop i2, C-terminal tail replaced by a GABAB tail)
# [4] = target: human mGluR3 FRET sensor subunit (CFP or YFP in the intracellular loop i2, C-terminal tail replaced by a GABAB tail)
increase of donor light intensity after photobleaching of the acceptor (FRET efficiency) [1] [%],apparent FRET efficiency (donor dequenching) [2] [%],apparent FRET efficiency (donor dequenching) [3] [%],apparent FRET efficiency (donor dequenching) [4] [%],Substance
23,,,,"human mGluR5 FRET sensor subunit (CFP or YFP in the intracellular loop i2, C-terminal tail replaced by a GABAB tail) (receptor)"
,13,,,"human mGluR4 FRET sensor subunit (CFP or YFP in the intracellular loop i2, C-terminal tail replaced by a GABAB tail) (receptor)"
,35,35,35,"human mGluR2 FRET sensor subunit (CFP or YFP in the intracellular loop i2, C-terminal tail replaced by a GABAB tail) (receptor)"
